# Assay results published in publication PMC11751033.
# System: ATF 3r (six-zinc-finger artificial transcription factor with NLS, VP64 and HA tag) (artificial/designed (expressed in E. coli BL21))
# Assay: EMSA
# Details: EMSA: 2.5% glycerol, 5 mM MgCl2, 0.05% NP-40, 50 mM KCl, 20 uL, 20 pmol DNA, 0 C 1 h; 4-8% native PAGE in TBE pH 8.2-8.4, 5 C, SYBR Safe stain; binding pH not …
substance,measurement,value
IFNG target dsDNA (ATF 3 site),Kd,5.2 nM
